Measurements: patent US20240409634A1 (Janssen / Centocor, published 2024)

B1: CD33 antibody JL2 combined with Vdelta2 antibody 6H4 (JL2x6H4), Fab (CD33) x VHH (Vδ2) Fc construct (bispecific antibody, human IgG1, kappa, L234A L235A)
heavy: EVQLVESGGGLVQPGGSLRLSCVVSGFTFSSYWMTWVRQAPGKGLEWVANIKQDGSERYYVDSVKGRFTISRDSAKNSLYLQMNSLRAEDTAVYYCAREVGYNWNQGGYFDYWGQGTLVTVSSASTKGPSVFPLAPSSKSTSGGTAALGCLVKDYFPEPVTVSWNSGALTSGVHTFPAVLQSSGLYSLSSVVTVPSSSLGTQTYICNVNHKPSNTKVDKKVEPKSCDKTHTCPPCPAPEAAGGPSVFLFPPKPKDTLMISRTPEVTCVVVSVSHEDPEVKFNWYVDGVEVHNAKTKPREEQYNSTYRVVSVLTVLHQDWLNGKEYKCKVSNKALPAPIEKTISKAKGQPREPQVYTLPPSREEMTKNQVSLSCAVKGFYPSDIAVEWESNGQPENNYKTTPPVLDSDGSFFLVSKLTVDKSRWQQGNVFSCSVMHEALHNRFTQKSLSLSPGK
light: DIVMTQSPLSLPVTPGEPASISCRSSQSLLHSDGYNYLDWYLQKSGQSPQLLIYLGSYRASGVPDRFSGSGSGTDFTLKISRVEAEDVGIYYCMQVLQTPWTFGQGTKVEIKRTVAAPSVFIFPPSDEQLKSGTASVVCLLNNFYPREAKVQWKVDNALQSGNSQESVTEQDSKDSTYSLSSTLTLSKADYEKHKVYACEVTHQGLSSPVTKSFNRGEC
chain: EVQLVESGGGLVQAGGSLRLSCAASGRPFSNYGMGWFRQAPGKKREFVAGISWSGGSTDYADSVKGRFTISRDNAKNTVYLQMNSLKPEDTAVYYCAAVFSGAETAYYPSDDYDYWGQGTQVTVSSEPKSSDKTHTCPPCPAPEAAGGPSVFLFPPKPKDTLMISRTPEVTCVVVSVSHEDPEVKFNWYVDGVEVHNAKTKPREEQYNSTYRVVSVLTVLHQDWLNGKEYKCKVSNKALPAPIEKTISKAKGQPREPQVYTLPPSREEMTKNQVSLWCLVKGFYPSDIAVEWESNGQPENNYKTTPPVLDSDGSFFLYSKLTVDKSRWQQGNVFSCSVMHEALHNHYTQKSLSLSPGK
B2: CD33 antibody JL3 combined with Vdelta2 antibody 6H4 (JL3x6H4), Fab (CD33) x VHH (Vδ2) Fc construct (bispecific antibody, human IgG1, lambda, L234A L235A)
heavy: QVQLQESGPGLVKPSETLSLTCSVSGGSIRNYYWSWIRQSAGKELEWFGHIFSTGHINYDSSLKSRVTMSVDTSNNQFSLKLRSVTAADTAVYYCARDNGAALFDFWGQGTLVTVSSASTKGPSVFPLAPSSKSTSGGTAALGCLVKDYFPEPVTVSWNSGALTSGVHTFPAVLQSSGLYSLSSVVTVPSSSLGTQTYICNVNHKPSNTKVDKKVEPKSCDKTHTCPPCPAPEAAGGPSVFLFPPKPKDTLMISRTPEVTCVVVSVSHEDPEVKFNWYVDGVEVHNAKTKPREEQYNSTYRVVSVLTVLHQDWLNGKEYKCKVSNKALPAPIEKTISKAKGQPREPQVYTLPPSREEMTKNQVSLSCAVKGFYPSDIAVEWESNGQPENNYKTTPPVLDSDGSFFLVSKLTVDKSRWQQGNVFSCSVMHEALHNRFTQKSLSLSPGK
light: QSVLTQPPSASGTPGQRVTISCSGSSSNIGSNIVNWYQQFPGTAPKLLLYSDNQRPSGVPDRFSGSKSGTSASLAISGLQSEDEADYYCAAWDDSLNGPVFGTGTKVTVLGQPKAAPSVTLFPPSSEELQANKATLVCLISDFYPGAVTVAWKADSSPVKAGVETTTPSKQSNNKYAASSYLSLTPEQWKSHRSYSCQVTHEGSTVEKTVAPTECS
chain: EVQLVESGGGLVQAGGSLRLSCAASGRPFSNYGMGWFRQAPGKKREFVAGISWSGGSTDYADSVKGRFTISRDNAKNTVYLQMNSLKPEDTAVYYCAAVFSGAETAYYPSDDYDYWGQGTQVTVSSEPKSSDKTHTCPPCPAPEAAGGPSVFLFPPKPKDTLMISRTPEVTCVVVSVSHEDPEVKFNWYVDGVEVHNAKTKPREEQYNSTYRVVSVLTVLHQDWLNGKEYKCKVSNKALPAPIEKTISKAKGQPREPQVYTLPPSREEMTKNQVSLWCLVKGFYPSDIAVEWESNGQPENNYKTTPPVLDSDGSFFLYSKLTVDKSRWQQGNVFSCSVMHEALHNHYTQKSLSLSPGK
B3: CD33 antibody JL2 combined with Vdelta2 antibody 5D3 (JL2x5D3), Fab (CD33) x VHH (Vδ2) Fc construct (bispecific antibody, human IgG1, kappa, L234A L235A)
heavy: EVQLVESGGGLVQPGGSLRLSCVVSGFTFSSYWMTWVRQAPGKGLEWVANIKQDGSERYYVDSVKGRFTISRDSAKNSLYLQMNSLRAEDTAVYYCAREVGYNWNQGGYFDYWGQGTLVTVSSASTKGPSVFPLAPSSKSTSGGTAALGCLVKDYFPEPVTVSWNSGALTSGVHTFPAVLQSSGLYSLSSVVTVPSSSLGTQTYICNVNHKPSNTKVDKKVEPKSCDKTHTCPPCPAPEAAGGPSVFLFPPKPKDTLMISRTPEVTCVVVSVSHEDPEVKFNWYVDGVEVHNAKTKPREEQYNSTYRVVSVLTVLHQDWLNGKEYKCKVSNKALPAPIEKTISKAKGQPREPQVYTLPPSREEMTKNQVSLSCAVKGFYPSDIAVEWESNGQPENNYKTTPPVLDSDGSFFLVSKLTVDKSRWQQGNVFSCSVMHEALHNRFTQKSLSLSPGK
light: DIVMTQSPLSLPVTPGEPASISCRSSQSLLHSDGYNYLDWYLQKSGQSPQLLIYLGSYRASGVPDRFSGSGSGTDFTLKISRVEAEDVGIYYCMQVLQTPWTFGQGTKVEIKRTVAAPSVFIFPPSDEQLKSGTASVVCLLNNFYPREAKVQWKVDNALQSGNSQESVTEQDSKDSTYSLSSTLTLSKADYEKHKVYACEVTHQGLSSPVTKSFNRGEC
chain: EVQLVESGGGLVQAGGSLRLSCAASGRPFSNYAMGWFRQAPGKEREFVTVISWSGGSTYYADSVKGRFTISRDNAKNTVYLQMNSLKPEDTAVYYCAAQFSGASTVVAGTALDYDYWGQGTRVTVSSEPKSSDKTHTCPPCPAPEAAGGPSVFLFPPKPKDTLMISRTPEVTCVVVSVSHEDPEVKFNWYVDGVEVHNAKTKPREEQYNSTYRVVSVLTVLHQDWLNGKEYKCKVSNKALPAPIEKTISKAKGQPREPQVYTLPPSREEMTKNQVSLWCLVKGFYPSDIAVEWESNGQPENNYKTTPPVLDSDGSFFLYSKLTVDKSRWQQGNVFSCSVMHEALHNHYTQKSLSLSPGK
B4: CD33 antibody JL3 combined with Vdelta2 antibody 5D3 (JL3x5D3), Fab (CD33) x VHH (Vδ2) Fc construct (bispecific antibody, human IgG1, lambda, L234A L235A)
heavy: QVQLQESGPGLVKPSETLSLTCSVSGGSIRNYYWSWIRQSAGKELEWFGHIFSTGHINYDSSLKSRVTMSVDTSNNQFSLKLRSVTAADTAVYYCARDNGAALFDFWGQGTLVTVSSASTKGPSVFPLAPSSKSTSGGTAALGCLVKDYFPEPVTVSWNSGALTSGVHTFPAVLQSSGLYSLSSVVTVPSSSLGTQTYICNVNHKPSNTKVDKKVEPKSCDKTHTCPPCPAPEAAGGPSVFLFPPKPKDTLMISRTPEVTCVVVSVSHEDPEVKFNWYVDGVEVHNAKTKPREEQYNSTYRVVSVLTVLHQDWLNGKEYKCKVSNKALPAPIEKTISKAKGQPREPQVYTLPPSREEMTKNQVSLSCAVKGFYPSDIAVEWESNGQPENNYKTTPPVLDSDGSFFLVSKLTVDKSRWQQGNVFSCSVMHEALHNRFTQKSLSLSPGK
light: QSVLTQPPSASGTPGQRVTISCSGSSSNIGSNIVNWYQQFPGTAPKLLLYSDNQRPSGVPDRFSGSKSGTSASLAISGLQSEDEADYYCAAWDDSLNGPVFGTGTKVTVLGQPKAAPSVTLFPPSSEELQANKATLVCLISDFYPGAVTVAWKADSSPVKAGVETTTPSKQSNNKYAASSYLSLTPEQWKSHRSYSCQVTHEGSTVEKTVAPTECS
chain: EVQLVESGGGLVQAGGSLRLSCAASGRPFSNYAMGWFRQAPGKEREFVTVISWSGGSTYYADSVKGRFTISRDNAKNTVYLQMNSLKPEDTAVYYCAAQFSGASTVVAGTALDYDYWGQGTRVTVSSEPKSSDKTHTCPPCPAPEAAGGPSVFLFPPKPKDTLMISRTPEVTCVVVSVSHEDPEVKFNWYVDGVEVHNAKTKPREEQYNSTYRVVSVLTVLHQDWLNGKEYKCKVSNKALPAPIEKTISKAKGQPREPQVYTLPPSREEMTKNQVSLWCLVKGFYPSDIAVEWESNGQPENNYKTTPPVLDSDGSFFLYSKLTVDKSRWQQGNVFSCSVMHEALHNHYTQKSLSLSPGK
B5: CD33 antibody JL5 combined with Vdelta2 antibody 5D3 (JL5x5D3), Fab (CD33) x VHH (Vδ2) Fc construct (bispecific antibody, human IgG1, lambda, L234A L235A)
heavy: QVQLQESGPGLVKPSETLSLTCSVSGASIRNYYWSWIRQTAGKGLEWLGHIYSTGNIHYNPSLKSRVTMSVDTSNNQFSLKLRSVTAADTAVYYCARDNGAALFDYWGQGTLVTVSSASTKGPSVFPLAPSSKSTSGGTAALGCLVKDYFPEPVTVSWNSGALTSGVHTFPAVLQSSGLYSLSSVVTVPSSSLGTQTYICNVNHKPSNTKVDKKVEPKSCDKTHTCPPCPAPEAAGGPSVFLFPPKPKDTLYITREPEVTCVVVSVSHEDPEVKFNWYVDGVEVHNAKTKPREEQYNSTYRVVSVLTVLHQDWLNGKEYKCKVSNKALPAPIEKTISKAKGQPREPQVYTLPPSREEMTKNQVSLSCAVKGFYPSDIAVEWESNGQPENNYKTTPPVLDSDGSFFLVSKLTVDKSRWQQGNVFSCSVMHEALHNRFTQKSLSLSPGK
light: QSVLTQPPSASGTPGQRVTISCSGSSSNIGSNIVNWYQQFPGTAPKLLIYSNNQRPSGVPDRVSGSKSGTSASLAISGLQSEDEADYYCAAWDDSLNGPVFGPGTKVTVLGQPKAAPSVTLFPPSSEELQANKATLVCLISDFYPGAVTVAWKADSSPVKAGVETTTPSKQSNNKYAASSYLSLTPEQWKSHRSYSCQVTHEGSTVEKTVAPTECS
chain: EVQLVESGGGLVQAGGSLRLSCAASGRPFSNYAMGWFRQAPGKEREFVTVISWSGGSTYYADSVKGRFTISRDNAKNTVYLQMNSLKPEDTAVYYCAAQFSGASTVVAGTALDYDYWGQGTRVTVSSEPKSSDKTHTCPPCPAPEAAGGPSVFLFPPKPKDTLYITREPEVTCVVVSVSHEDPEVKFNWYVDGVEVHNAKTKPREEQYNSTYRVVSVLTVLHQDWLNGKEYKCKVSNKALPAPIEKTISKAKGQPREPQVYTLPPSREEMTKNQVSLWCLVKGFYPSDIAVEWESNGQPENNYKTTPPVLDSDGSFFLYSKLTVDKSRWQQGNVFSCSVMHEALHNHYTQKSLSLSPGK
B6: CD33 antibody JL6 combined with Vdelta2 antibody 5D3 (JL6x5D3), Fab (CD33) x VHH (Vδ2) Fc construct (bispecific antibody, human IgG1, lambda, L234A L235A)
heavy: QVQLQESGPGLVKPSETLSLTCTVSGGSISSYYWGWIRQPPGKGLEWIGYIYYSGSTNYNPSLKSRVTISVDTSKNQFSLKLSSVTAADTAVYYCARMWEILGFDPWGQGTLVTVSSASTKGPSVFPLAPSSKSTSGGTAALGCLVKDYFPEPVTVSWNSGALTSGVHTFPAVLQSSGLYSLSSVVTVPSSSLGTQTYICNVNHKPSNTKVDKKVEPKSCDKTHTCPPCPAPEAAGGPSVFLFPPKPKDTLMISRTPEVTCVVVSVSHEDPEVKFNWYVDGVEVHNAKTKPREEQYNSTYRVVSVLTVLHQDWLNGKEYKCKVSNKALPAPIEKTISKAKGQPREPQVYTLPPSREEMTKNQVSLSCAVKGFYPSDIAVEWESNGQPENNYKTTPPVLDSDGSFFLVSKLTVDKSRWQQGNVFSCSVMHEALHNRFTQKSLSLSPGK
light: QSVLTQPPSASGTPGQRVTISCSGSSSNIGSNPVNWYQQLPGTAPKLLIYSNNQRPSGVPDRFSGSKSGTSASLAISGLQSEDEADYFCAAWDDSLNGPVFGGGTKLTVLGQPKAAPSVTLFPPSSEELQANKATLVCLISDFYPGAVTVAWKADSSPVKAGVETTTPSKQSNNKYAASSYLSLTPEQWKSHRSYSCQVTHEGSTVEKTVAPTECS
chain: EVQLVESGGGLVQAGGSLRLSCAASGRPFSNYAMGWFRQAPGKEREFVTVISWSGGSTYYADSVKGRFTISRDNAKNTVYLQMNSLKPEDTAVYYCAAQFSGASTVVAGTALDYDYWGQGTRVTVSSEPKSSDKTHTCPPCPAPEAAGGPSVFLFPPKPKDTLMISRTPEVTCVVVSVSHEDPEVKFNWYVDGVEVHNAKTKPREEQYNSTYRVVSVLTVLHQDWLNGKEYKCKVSNKALPAPIEKTISKAKGQPREPQVYTLPPSREEMTKNQVSLWCLVKGFYPSDIAVEWESNGQPENNYKTTPPVLDSDGSFFLYSKLTVDKSRWQQGNVFSCSVMHEALHNHYTQKSLSLSPGK

These binders were tested against human CD33 on CD33-expressing THP-1 cells (human, UniProt P20138 18-364) (assay: cell-based or functional assay).
Chain of human CD33 on CD33-expressing THP-1 cells (P20138 18-364): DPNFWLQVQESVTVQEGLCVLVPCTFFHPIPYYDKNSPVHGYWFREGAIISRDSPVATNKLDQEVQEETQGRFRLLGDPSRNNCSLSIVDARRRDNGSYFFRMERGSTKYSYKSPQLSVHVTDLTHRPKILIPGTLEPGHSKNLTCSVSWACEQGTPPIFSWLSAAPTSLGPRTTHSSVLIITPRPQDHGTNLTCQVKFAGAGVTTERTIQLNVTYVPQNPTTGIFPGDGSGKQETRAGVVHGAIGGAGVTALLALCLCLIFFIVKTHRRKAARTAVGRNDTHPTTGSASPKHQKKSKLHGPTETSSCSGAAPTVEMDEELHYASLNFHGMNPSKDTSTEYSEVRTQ
In the case of B1, the “Cytotox EC50 (pM) E:T 1:1 - 22 hrs” value is reported as 4 pM and the “Cytotox EC50 (pM) E:T 1:20 - 94 hrs” value is reported as 20 pM.
B2 was tested, and the “Cytotox EC50 (pM) E:T 1:1 - 22 hrs” value was 2.5 pM and the “Cytotox EC50 (pM) E:T 1:20 - 94 hrs” value was 12 pM.
B3 was tested, and the “Cytotox EC50 (pM) E:T 1:1 - 22 hrs” value was 28 pM and the “Cytotox EC50 (pM) E:T 1:20 - 94 hrs” value was about 380 pM.
For B4, the “Cytotox EC50 (pM) E:T 1:1 - 22 hrs” value was 15 pM and the “Cytotox EC50 (pM) E:T 1:20 - 94 hrs” value was 77 pM.
With B5 the “Cytotox EC50 (pM) E:T 1:1 - 22 hrs” value was 12 pM and the “Cytotox EC50 (pM) E:T 1:20 - 94 hrs” value was 45 pM.
For B6, the “Cytotox EC50 (pM) E:T 1:1 - 22 hrs” value was 63 pM and the “Cytotox EC50 (pM) E:T 1:20 - 94 hrs” value was about 560 pM.
